Consider two substances from patent publication US20210147513A1.

For assay [1], the target named is S1(349-590)-hFc (MERS-CoV; human). The assay can be described thus: BLI (Octet RED96), wild type RBD-hFc. A general note: BLI is a label-free optical method that tracks binding on a fibre tip over time.
For a further assay, the target named is hDPP4 Cells (human) (UniProt P27487). Kind of assay: FACS. To be noted: Fc fusion.

The term Kd denotes the equilibrium constant for the complex coming apart. In general, EC50 refers to the concentration giving half of the maximal effect. The low end stands for higher potency in that assay, the high end for lower potency in that assay.

Chain of hDPP4 Cells (human) (P27487 whole entry, the tested form may be a part): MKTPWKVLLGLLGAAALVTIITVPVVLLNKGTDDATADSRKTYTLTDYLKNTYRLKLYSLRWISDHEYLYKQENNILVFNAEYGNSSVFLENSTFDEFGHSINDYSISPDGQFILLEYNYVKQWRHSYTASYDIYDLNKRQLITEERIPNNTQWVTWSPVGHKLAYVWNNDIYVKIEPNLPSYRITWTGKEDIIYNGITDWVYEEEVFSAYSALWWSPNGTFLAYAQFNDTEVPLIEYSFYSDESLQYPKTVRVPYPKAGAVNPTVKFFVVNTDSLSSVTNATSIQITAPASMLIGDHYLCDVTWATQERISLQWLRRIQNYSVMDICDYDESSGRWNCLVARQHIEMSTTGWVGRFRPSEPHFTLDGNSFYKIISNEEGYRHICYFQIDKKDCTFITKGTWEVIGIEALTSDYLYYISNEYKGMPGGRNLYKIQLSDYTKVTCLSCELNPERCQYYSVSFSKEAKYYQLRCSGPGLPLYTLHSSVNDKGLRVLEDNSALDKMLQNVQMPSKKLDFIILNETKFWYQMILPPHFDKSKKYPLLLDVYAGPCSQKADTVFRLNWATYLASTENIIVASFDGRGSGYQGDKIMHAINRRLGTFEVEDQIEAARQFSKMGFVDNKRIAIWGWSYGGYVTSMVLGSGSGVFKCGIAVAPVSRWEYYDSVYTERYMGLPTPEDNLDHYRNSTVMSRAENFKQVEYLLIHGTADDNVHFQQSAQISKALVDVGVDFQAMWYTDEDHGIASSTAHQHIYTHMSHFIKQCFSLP

On to “Recombinant soluble human DPP4 (from UniProt P27487 29-766) (receptor)”, for which the Kd in assay [1] stood at 21.4 nM.

In the case of Wt. RBD, in the assay with hDPP4 Cells (human), the EC50 stood at 0.015 µg/mL.
